Test results as given in patent US20030027314.

B1: GBF-C/EBP chimeric protein (GBF basic region on the C/EBP leucine zipper) (protein)
chain: PVKDERELKRQKRKQSNRESARRSRLRNEAECEQTQQKVLELTSDNDRLRKRVEQLSRELDTLRGIFRQLPESSLVKAMGNCA
B2: 4heptad-F (protein)
chain: ASMTGGQQMGRDPGGGLEQRAEELARENEELEKEAEELEQENAELEQEVLELESRNDRLRKEVEQLERELDTLRGIFRQLPESSLVKAMGNCA
B3: 2heptad-F (protein)
chain: ASMTGGQQMGRDPGGGLEKEAEELEQENAELEQEVLELESRNDRLRKEVEQLERELDTLRGIFRQLPESSLVKAMGNCA
B4: c-Jun (unmodified) (protein, from a related filing)
chain: PLSPIDMESQERIKAERKRMRNRIAASKCRKRKLERIARLEEKVKTLKAQNSELASTANMLREQVAQLKQKVMNHVNSGCQLMLTQQLQTF
B5: 1heptad-F (protein)
chain: ASMTGGQQMGRDPGGGLEQENAELEQEVLELESRNDRLRKEVEQLERELDTLRGIFRQLPESSLVKAMGNCA
B6: CREB (unmodified) (protein, from a related filing)
chain: MASSPALPTQPAEEAARKREVRLMKNREAARECRRKKKEYVKCLENRVAVLENQNKTLIEELKALKDLYCHKSD
B7: C/EBP bZIP domain (chimeric GCN4-C/EBP protein) (protein)
chain: SEYQPSLFALNPMGFSPLDGSKSTNENVSASTSTAKPMVGQLIFDKFIKTEEDPGKAKKSVDKNSNEYRVRRERNNIAVRKSRDKAKQRNVETQQKVLELTSDNDRLRKRVEQLSRELDTLRGIFRQLPESSLVKAMGNCA
B8: 4heptad-Fos (c-Fos with the basic region replaced by four acidic heptad repeats) (protein)
chain: MASMTGGQQMGRDPDLEQRAEELARENEELEKEAEELEQENAELEAETDQLEDEKSALQTEIANLLKEKEKLEFILAAHRPACKIP
B9: 3heptad-F (protein)
chain: ASMTGGQQMGRDPGGGLARENEELEKEAEELEQENAELEQEVLELESRNDRLRKEVEQLERELDTLRGIFRQLPESSLVKAMGNCA
B10: VBP-C/EBP chimeric protein (VBP basic region on the C/EBP leucine zipper) (protein)
chain: ASMTGGQQMGRDPLEEKVFVPDEQKDEKYWTRRKKNNVAAKRSRDARRLKENQTQQKVLELTSDNDRLRKRVEQLSRELDTLRGIFRQLPESSLVKAMGNCA
B11: 4heptadCREB (CREB with 4 heptad repeats appended at the amino terminus) (protein)
chain: ASMTGGQQMGRDPDLEQRAEELARENEELEKEAEELEQENAELENRVAVLENQNKTLIEELKALKDLYCHKSD
B12: 0heptad-F (F zipper with the basic region deleted) (protein)
chain: ASMTGGQQMGRDPGGGTQQEVLELESRNDRLRKEVEQLERELDTLRGIFRQLPESSLVKAMGNCA

How the values were obtained:
[1] = CD thermal melt, homodimer
[2] = CD thermal melt, homodimer, 150 mM KCl
[3] = thermal melting curve, homodimer (FIG. 4)
[4] = thermal melting curve, homodimer (FIG. 3)
[5] = CD thermal melt, homodimer, low salt (50 mM KCl)
[6] = thermal melting curve, homodimer (FIG. 4); remark: listed apart in the source
[7] = thermal melting curve, homodimer (FIG. 3); remark: listed apart in the source

Protein | Tm [2] [°C] | other results
B1 | 50.2 | difference of homodimer Tm from C/EBP [1]: as homodimers showed a Tm within 1 °C of C/EBP
B2 | 15.2 | –
B3 | 24.8 | –
B4 | – | Tm [3]: homodimerization of unmodified c-Jun had a melting temperature of 29.4 °C
B5 | 29 | –
B6 | – | Tm [4]: the melting temperature of unmodified CREB homodimerization is 47 °C
B7 | 49.5 | fall of Tm in 50 mM KCl against 150 mM KCl [1]: less stable by 4 °C in 50 mM KCl compared with 150 mM KCl; Tm [5]: 45.8 °C
B8 | – | Tm [6]: homodimerization of acidically modified c-Fos ... had a melting temperature of 25 °C
B9 | 28.3 | –
B10 | 50 | difference of homodimer Tm from C/EBP [1]: as homodimers showed a Tm within 1 °C of C/EBP
B11 | – | Tm [7]: (4heptadCREB homodimerization) is 22 °C
B12 | 30 | –
